One block for each molecule: values may come before it.
Assays:
Rac1 = target: T1, Rac1 (Homo sapiens, UniProt P63000); experiment: In vitro GDP release assay (filter-binding) on Rac1; format: biochemical; details: for dissociation of [3H]GDP from Rac1 (GEF activity): purified GST-IBP fusion protein, 4 pmol, [3H]GDP-loaded GST-Rac1
T1 construct: purchased Calbiochem-Novabiochem; host or cells: bacteria
Description: A-C, stimulation of GDP dissociation from Rho GTPases by wild-type or mutant IBP proteins. [^3H]GDP-loaded Rac1 (A), Cdc42 (B), or RhoA (C) was incubated with GST alone or with either wild-type or mutant GST-IBP fusion proteins, as indicated. The exchange reactions were stopped at the indicated time points, and the amount of [^3H]GDP remaining bound to the GTPases was then measured by filtering the quenched reaction samples over nitrocellulose membranes followed by scintillation counting of the membrane-bound radioactivity. The percentage of [^3H]GDP remaining bound at each time point was evaluated relative to the amount of radioactivity remaining at time 0 of the respective reaction, which was set to 100% in each experiment. The results shown are representative of at least three independent assays. D, regulation of IBP GEF activity by Lck and PI(3,4,5)P3. [^3H]GDP-loaded Rac1 was incubated with Lck-phosphorylated wild-type HA-IBP (IBP+Lck) in the presence or absence of PI(3,4,5)P3 (1 μM) for 0 or 40 min. Reactions without IBP (Lck and Lck^+ PI(3,4,5)P3) were simultaneously carried out as control. The exchange reactions were then stopped, and the amount of [^3H]GDP remaining bound to Rac1 was measured by filter-binding method as described for A-C. The percentage of [^3H]GDP remaining bound after incubation for 40 min was evaluated relative to the amount of radioactivity remaining at time 0 of the respective reaction, which was set to 100% in each experiment. The results shown are representative of at least three independent assays.
The in vitro GDP release assays were carried out by filter-binding method as described previously (28-31). To prepare [3H]GDP-loaded GTPases, 40 pmol of bacterially expressed and purified GST-Rac1, GST-Cdc42, or His-RhoA (Calbiochem-Novabiochem) was incubated with 1 μM [3H]GDP in 100 μl of a binding buffer (10 mM HEPES, pH 7.5, 100 mM NaCl, 5 mM MgCl2, 1 mM EGTA, 1 mM dithiothreitol, 50 μg/ml bovine serum albumin) for 60 min at 30° C. The nucleotide exchange reaction was initiated by adding 100 μM nonradioactive GTP and 4 pmol of purified GST alone or GST-IBP fusion proteins (or when appropriate, 4 pmol of purified wild-type HA-IBP either non-phosphorylated or in vitro phosphorylated by purified Lck and cold ATP) to the [3H]GDP-loaded GTPase and then equally splitting and incubating the reaction mixture for the indicated time periods at room temperature. […] The amount of [3H]GDP remaining bound to the GTPases was determined by filtering the quenched reaction samples over nitrocellulose membranes followed by extensive washing of the filters and then quantification of the membrane-bound radioactivity by scintillation counting.

Cdc42 = target: T2, Cdc42 (Homo sapiens, UniProt P60953); experiment: In vitro GDP release assay (filter-binding) on Cdc42; format: biochemical; details: purified GST-IBP fusion protein, 4 pmol; [3H]GDP-loaded GST-Cdc42
T2 construct: purchased Calbiochem-Novabiochem; host or cells: bacteria
Description: A-C, stimulation of GDP dissociation from Rho GTPases by wild-type or mutant IBP proteins. [^3H]GDP-loaded Rac1 (A), Cdc42 (B), or RhoA (C) was incubated with GST alone or with either wild-type or mutant GST-IBP fusion proteins, as indicated. The exchange reactions were stopped at the indicated time points, and the amount of [^3H]GDP remaining bound to the GTPases was then measured by filtering the quenched reaction samples over nitrocellulose membranes followed by scintillation counting of the membrane-bound radioactivity. The percentage of [^3H]GDP remaining bound at each time point was evaluated relative to the amount of radioactivity remaining at time 0 of the respective reaction, which was set to 100% in each experiment. The results shown are representative of at least three independent assays. D, regulation of IBP GEF activity by Lck and PI(3,4,5)P3. [^3H]GDP-loaded Rac1 was incubated with Lck-phosphorylated wild-type HA-IBP (IBP+Lck) in the presence or absence of PI(3,4,5)P3 (1 μM) for 0 or 40 min. […] The exchange reactions were then stopped, and the amount of [^3H]GDP remaining bound to Rac1 was measured by filter-binding method as described for A-C. The percentage of [^3H]GDP remaining bound after incubation for 40 min was evaluated relative to the amount of radioactivity remaining at time 0 of the respective reaction, which was set to 100% in each experiment. […]

T2 sequence (P60953 whole entry, species assumed, the tested form may be a part): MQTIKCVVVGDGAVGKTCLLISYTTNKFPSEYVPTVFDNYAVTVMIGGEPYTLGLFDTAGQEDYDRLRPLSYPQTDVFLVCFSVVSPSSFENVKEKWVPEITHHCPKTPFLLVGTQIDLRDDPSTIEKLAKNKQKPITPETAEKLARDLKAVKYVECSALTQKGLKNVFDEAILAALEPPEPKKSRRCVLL

ability of wild-type IBP to promote GDP-GTP exchange on Rac1 after phosphorylation by Lck (Rac1; purified HA-IBP phosphorylated in vitro by purified Lck, 40 min): enhanced ability
Molecule: Lck: purified Lck kinase, Src family protein tyrosine kinase, used to phosphorylate IBP in vitro

GEF activity of Lck-phosphorylated wild-type IBP on Rac1 on addition of PI(3,4,5)P3 (Rac1; PI(3,4,5)P3 1 μM, 40 min): stimulated
Molecule: phosphatidylinositol 3,4,5-triphosphate [PI(3,4,5)P3, reference compound]

dissociation of [3H]GDP from Cdc42 (GEF activity) (Cdc42): did not stimulate the dissociation | dissociation of [3H]GDP from Rac1 (GEF activity) (Rac1): did not stimulate the dissociation
Molecule: wild-type IBP: purified recombinant full-length human IBP (IRF-4 Binding Protein), GST fusion or HA-tagged

dissociation of [3H]GDP from Cdc42 (GEF activity) (Cdc42): stimulated rapid GDP dissociation | dissociation of [3H]GDP from Rac1 (GEF activity) (Rac1): stimulated rapid GDP dissociation
B1: IBP 313-631: IBP mutant containing the putative DH domain alone, GST fusion protein (protein, UniProt Q9H4E7 313-631, looked up, fragment)
chain: LQAEGKTSLHKDLKQKRREQREQRERRRAAKEEELLRLQQLQEEKERKLQELELLQEAQRQAERLLQEEEERRRSQHRELQQALEGQLREAEQARASMQAEMELKEEEAARQRQRIKELEEMQQRLQEALQLEVKARRDEESVRIAQTRLLEEEEEKLKQLMQLKEEQERYIERAQQEKEELQQEMAQQSRSLQQAQQQLEEVRQNRQRADEDVEAAQRKLRQASTNVKHWNVQMNRLMHPIEPGDKRPVTSSSFSGFQPPLLAHRDSSLKRLTRWGSQGNRTPSPNSNEQQKSLNGGDEAPAPASTPQEDKLDPAPEN
modifications: GST fusion
notes: IBP mutant containing the putative DH domain alone, GST fusion protein

Reference: US20060019915A1, “Method to modulate the immune system with a novel guanine nucleotide exchange factor” (priority 2004, published 2006)
